From US20110262931A1 (published 2011)

Target: T1, mast cell carboxypeptidase purified from human skin (human, UniProt P15088 110-417)
T1 construct: also called human skin carboxypeptidase; carboxypeptidase purified from skin
T1 sequence (looked up): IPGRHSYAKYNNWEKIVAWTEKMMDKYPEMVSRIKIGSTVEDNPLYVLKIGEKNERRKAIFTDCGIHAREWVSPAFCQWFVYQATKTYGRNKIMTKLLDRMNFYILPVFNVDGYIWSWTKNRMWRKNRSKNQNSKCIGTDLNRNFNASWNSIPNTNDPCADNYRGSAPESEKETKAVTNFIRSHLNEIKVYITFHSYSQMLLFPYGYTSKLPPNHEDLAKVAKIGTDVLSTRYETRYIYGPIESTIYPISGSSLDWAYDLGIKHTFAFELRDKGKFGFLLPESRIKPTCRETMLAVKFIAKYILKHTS
Assay: affinity chromatography on PCI-agarose
Procedure: Mast cell carboxypeptidase was purified from finely chopped extracts of human skin (obtained from macroscopically normal tissue at leg amputation) using a method adapted from that of Goldstein et al. (1989, ibid). […] After washing the column, carboxypeptidase was eluted with unconjugated PCI and dialysed to remove the inhibitor. The purity of the enzyme preparation was assessed by SDS-PAGE and silver staining (Pierce, Rockford, Ill., USA). Proteolytic activity was determined by monitoring the cleavage of […] hippuryl-Phe-Arg (Sigma) at 260 nm.

B1: potato tuber carboxypeptidase inhibitor (other, UniProt P01075 1-39, looked up)
chain: QQHADPICNKPCKTHDDCSGAWFCQACWNSARTCGPYVG
notes: also called PCI
Does B1 bind?
Result: binds
